Results taken from paper doi:10.1101/2024.10.29.620959.

Columns and labels:
[1] = target: FadD5(1-448), N-terminal domain construct of Mycobacterium tuberculosis FadD5 (Mycobacterium tuberculosis H37Rv); experiment: SEC-MALS
[2] = target: Mycobacterium tuberculosis FadD5 (fatty acyl-CoA synthetase, Rv0166), full length (Mycobacterium tuberculosis H37Rv); experiment: SAXS
[3] = target: Mycobacterium tuberculosis FadD5 (fatty acyl-CoA synthetase, Rv0166), full length (Mycobacterium tuberculosis H37Rv); experiment: SEC-MALS
[4] = target: Mycobacterium tuberculosis FadD5 (fatty acyl-CoA synthetase, Rv0166), full length (Mycobacterium tuberculosis H37Rv); experiment: native gel or EMSA

Substance | stoichiometry N [1] | stoichiometry N [2] | stoichiometry N [3] | stoichiometry N [4]
FadD5(1-448), N-terminal domain construct of Mycobacterium tuberculosis FadD5 (domain or fragment) | 2 |  |  | 
Mycobacterium tuberculosis FadD5 (fatty acyl-CoA synthetase, Rv0166), full length (enzyme) |  | 2 | 2 | 2
